Data as given in patent publication US20220195049A1 (Scripps Research, published 2022).
Substitutions are numbered along the chain they refer to. One block for each binder: values may come before it.

Columns and labels:
[1] = target: human PD-L1 expressed on the cell surface (human, UniProt Q9NZQ7 19-290); test: cell-based or functional assay
[2] = target: T1, mouse PD-L1 on IFN-gamma-treated MC38 murine colon cancer cells (mouse, UniProt Q9EP73 19-290); test: the sentence names no assay
T1 construct: whole, on cells; also called mouse PD-L1 protein
T1 sequence (Q9EP73 19-290): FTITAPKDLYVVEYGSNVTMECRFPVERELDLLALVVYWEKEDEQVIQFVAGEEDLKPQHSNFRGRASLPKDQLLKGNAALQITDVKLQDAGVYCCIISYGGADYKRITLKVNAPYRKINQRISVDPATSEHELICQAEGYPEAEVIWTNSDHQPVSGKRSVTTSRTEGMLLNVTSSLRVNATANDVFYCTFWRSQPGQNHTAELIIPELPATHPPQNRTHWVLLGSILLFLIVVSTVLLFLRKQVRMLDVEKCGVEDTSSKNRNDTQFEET

[3] = target: T2, PD-L1-Fc (PD-L1 antigen protein, extracellular region Met1-Thr239 fused to human Fc) (human, UniProt Q9NZQ7 19-239); test: BLI (Octet); PD-1-coated biosensor dipped in a mix of PD-L1 antigen protein and antibody; KD from the Octet software
T2 construct: range 1-239; the secreted protein lacks it; also called PD-L1-Fc antigen; pCEP4-PDL1-Fc product; not shown: human Fc fragment of the pCEP4-Fc vector
T2 sequence (Q9NZQ7 19-239): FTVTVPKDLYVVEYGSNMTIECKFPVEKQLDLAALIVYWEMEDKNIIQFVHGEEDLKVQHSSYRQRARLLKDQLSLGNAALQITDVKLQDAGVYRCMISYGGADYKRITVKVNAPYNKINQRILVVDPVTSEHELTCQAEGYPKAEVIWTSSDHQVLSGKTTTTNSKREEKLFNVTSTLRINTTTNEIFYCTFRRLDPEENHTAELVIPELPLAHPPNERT

[4] = target: T3, human PD-L1 antigen protein (Sino Biological) (human, UniProt Q9NZQ7 19-238); test: SPR (Biacore T200), antibody captured by anti-human IgG (Fc), PD-L1 as analyte, 1:1 model
T3 construct: Bought from Sino Biological
T3 sequence (Q9NZQ7 19-238 limits assumed): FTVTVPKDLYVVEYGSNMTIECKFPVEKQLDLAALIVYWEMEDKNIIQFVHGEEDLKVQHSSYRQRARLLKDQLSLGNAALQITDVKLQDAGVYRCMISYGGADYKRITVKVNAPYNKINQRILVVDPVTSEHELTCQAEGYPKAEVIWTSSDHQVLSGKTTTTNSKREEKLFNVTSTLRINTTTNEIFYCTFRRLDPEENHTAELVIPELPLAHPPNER
Protocol: (§1) 3) In order to remove the bound antibody every cycle, a regeneration solution (3 M MgCl₂) was injected at a flow rate of 30 μl/min for 30 seconds, and the experimental data were obtained using a 1:1 binding model of BIA evaluation software version 1.0.

[5] = target: T4, mouse PD-L1 antigen protein (mouse, UniProt Q9EP73 19-238, limits assumed); test: as above
T4 sequence (Q9EP73 19-238 limits assumed): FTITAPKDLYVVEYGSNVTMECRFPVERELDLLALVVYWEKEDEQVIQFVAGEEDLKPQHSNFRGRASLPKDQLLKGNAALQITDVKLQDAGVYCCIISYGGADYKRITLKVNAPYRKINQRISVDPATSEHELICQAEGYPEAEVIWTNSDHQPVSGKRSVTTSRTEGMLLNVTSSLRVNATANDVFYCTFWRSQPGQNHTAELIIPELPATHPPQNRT
Protocol: as §1

[6] = target: T3, human PD-L1 antigen protein (Sino …); test: SPR (Biacore T200), antibody captured by anti-human IgG (Fc) on a CM5 chip, hPD-L1 as analyte, 1:1 binding model
Protocol: as §1

[7] = target: T4, mouse PD-L1 antigen protein; test: SPR (Biacore T200), antibody captured by anti-human IgG (Fc) on a CM5 chip, mPD-L1 as analyte, 1:1 binding model
Protocol: as §1

human PD-L1 expressed on the cell surface, sequence (Q9NZQ7 19-290): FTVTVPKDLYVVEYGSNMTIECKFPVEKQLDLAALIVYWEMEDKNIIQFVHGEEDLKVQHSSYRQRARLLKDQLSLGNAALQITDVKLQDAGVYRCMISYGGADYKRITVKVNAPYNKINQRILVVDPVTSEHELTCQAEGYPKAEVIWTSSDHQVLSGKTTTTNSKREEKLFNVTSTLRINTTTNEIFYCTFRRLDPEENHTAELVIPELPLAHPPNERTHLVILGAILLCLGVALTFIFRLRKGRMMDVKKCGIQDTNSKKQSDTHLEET

PD-1/PD-L1 binding inhibitory performance relative to 100% of the MK3475 antibody (Promega PD-1/PD-L1 Blockade Bioassay) [1]: 89%
binding result [2]: binds
Kd [3]: 58.4 pM
B1: KL001 (PL110) (antibody, V domains shown)
VH: QVQLVESGAEVKKPGSSVKVSCKASGGTFSSYAISWVRQAPGQGLEWMGRIIPILGIANYAQKFQGRVTVTADKSTSTAYMELSSLRSEDTAVYYCARSGYSYAYGSFDYWGQGTLVTVSS
VL: QLVLTQPPSVSGAPGQTVTISCTGPTIGAGYDVHWYQQLPGAAPKLLIYGNLNRPSGVPDRFSGSKSGTSASLAITDLQAEDEADYYCQSYDSRLGVVFGGGTKLTVLR
notes: IgG (VH-CH1-hinge-CH2-CH3 and VL-Ck); also called KL001 clone

Kd [4]: ~63.2 pM
Kd [5]: ~2800 pM
Kd [3]: 4.88 pM
koff [6]: 0.000319 s⁻¹
kon [6]: 5.05e+06 M⁻¹ s⁻¹
koff [7]: 0.00878 s⁻¹
kon [7]: 3.14e+06 M⁻¹ s⁻¹
B2: KL001-13 (antibody, human IgG1, kappa, V domains shown)
VH: B1 VH with S102G
VL: B1 VL with P25Q
notes: also called KL001-13 candidate antibody

Kd [4]: 67.1 pM
Kd [5]: 6400 pM
Kd [3]: 14.2 pM
koff [6]: 0.000277 s⁻¹
kon [6]: 4.13e+06 M⁻¹ s⁻¹
koff [7]: 0.0106 s⁻¹
kon [7]: 1.65e+06 M⁻¹ s⁻¹
B3: KL001-08 (antibody, V domains shown)
VH: B1 VH with S31G, I54A, S102G
VL: QLVLTQPPSVSGAPGQTVTISCTGPTIGAGYDVHWYQQLPGAAPKLLIYGNLNRPSGVPDRFSGSKSGTSASLAITDLQAEDEADYYCQSYDSTHGVVFGGGTKLTVL
notes: In the Biacore assay it was captured by anti-human IgG (Fc), so it carried a human Fc there; also called KL001-8
